This series deals with MS2 coat protein. Put plainly: apparent KD of MS2 coat protein; higher = weaker reporter binding. Particulars: Eterna round: R107. The gist of the method: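 Designed RNA switches were transcribed on-chip from Illumina sequencing clusters and titrated with SNAP-549-labelled MS2 coat protein in twofold steps from 0.7 or 1.5 nM up to 3 µM. Each step lasted 0.8–1.5 h at first and 10–20 min by the end, in 100 mM Tris-HCl pH 7.5, 80 mM KCl and 4 mM MgCl2, without or with constant ligand. Apparent KD is the median, for each design, of fits to normalised cluster binding curves.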

[1] abbreviates: input ligand: theophylline 20 uM.
[2] abbreviates: input ligand: theophylline 2 mM.
Where [3] appears, read: input ligand: tryptophan 2.4 mM.

In the case of “CGUAUUGGAAACAGUACGAGUGAUCCGGUCCGAGGACCGGUACGGCCGCCACUCGAUAUAAAUAAACAUGAGGAUCACCCAUGUA [Ex Tryptophan A 12]”, the “apparent KD of MS2 coat protein” value by setting is: (input ligand: arginine 13.2 mM) 0.0171 µM; under setting [1], 0.0169 µM; under setting [2], 0.0203 µM.
Turning to “CUACAUUUGUAGAAACCGGUCAACAAUAUUCGAGGACCGGUACGGCCGCCACUCGUAUAAUUUAAUACAUGAGGAUCACCCAUGU [Tryptophan A 4]”, the “apparent KD of MS2 coat protein” value (input ligand: arginine 13.2 mM) stood at 0.0148 µM, the “apparent KD of MS2 coat protein” value under setting [1] stood at 0.0182 µM and the “apparent KD of MS2 coat protein” value under setting [2] is 0.0171 µM.
For “CUACAUUUGUAGAAACCGGUCACCAUUACUCGAGGACCGGUACGGCCGCCACUCGUGUCAUGUGAUACAUGAGGAUCACCCAUGU [Tryptophan A 10]”, in that order: 0.0217 µM, 0.0262 µM and 0.0271 µM.
With “CUCCCACUAUCUGAUACCAGAGGAUAAACGUAGACUGGGAACAUGAGGAUCACCCAUGUCCUCCCUUGGCAGCAGGACUUAUCUC [theeternabot_exclusion_MS2_Theo_B_29]”, the “apparent KD of MS2 coat protein” value (input ligand: arginine 13.2 mM) stood at 0.0222 µM, the “apparent KD of MS2 coat protein” value under setting [1] turned out to be 0.0299 µM and the “apparent KD of MS2 coat protein” value under setting [3] worked out at 0.0222 µM.
Consider “CUCCCGUGGUCGGCCGCCACUGGAGGCCUCGCGCGACAUGAGGAUCACCCAUGUUGGCCCGGCCUCAGGACCGGGAUCGCGUGAG [#1 Same State - Tryptophan B Attempt #7 (HarryS)]”, for which the “apparent KD of MS2 coat protein” value amounted to 0.0112 µM (input ligand: arginine 13.2 mM); 0.0137 µM (input ligand: none); 0.0179 µM under setting [1]; 0.0119 µM under setting [2]; 0.0109 µM under setting [3].
With “CUCGUCAACUCGGCCGCCACUGACGUGUGGUCAGGCCUGUAGAAACACAUGAGGAUCACCCAUGUCAGGACCGGGAGCUUUAUUA [theeternabot_exclusion_MS2_Trp_B_26]”, the “apparent KD of MS2 coat protein” value by setting is: (input ligand: arginine 13.2 mM) 0.0318 µM; under setting [1], 0.0735 µM; under setting [2], 0.0616 µM.
“CUCUGAGUCCGUAAGGACUCAGAGGCGGAUACCAGCGAGGUCCAUCGCCCUUGGCAGCCGAACAUGAGGAUCACCCAUGUCGGUA [#1 Same State - Theophylline A Attempt #25 (HarryS)]”: the “apparent KD of MS2 coat protein” value was found to be 0.0116 µM (input ligand: arginine 13.2 mM); 0.00976 µM (input ligand: none); 0.0126 µM under setting [1]; 0.0198 µM under setting [2]; 0.0115 µM under setting [3].
Taken in the same sequence, the figures for “CUCUGAGUGAGAAAUCACUCAGAGGCGGAUACCAGCGAGGUCCAUCGCCCUUGGCAGCCGAACAUGAGGAUCACCCAUGUCGGUA [#1 Same State - Theophylline A Attempt #21 (HarryS)]” were 0.0099 µM, 0.0108 µM, 0.014 µM, 0.0145 µM and 0.00934 µM.
As to “CUCUUGGCCGCAGUACGUUUAUAGACCUAUCGAGGACCGGUACGGCCGCCACUCGGUUAGUCACAUGAGGAUCACCCAUGUGUCC [theeternabot_exclusion_MS2_Trp_A_38]”, the “apparent KD of MS2 coat protein” value reads like this: (input ligand: arginine 13.2 mM) 0.017 µM; under setting [1], 0.023 µM; under setting [2], 0.0197 µM.
For “CUUAUAUAUACGGCCGCCACUUACUCAUGAGGUAACAACAUGAGGAUCACCCAUGUUUGAGGAUCAAGGACCGGGUAUAUAUAAG [AstrosSSTry#18]”, in that order: 0.0232 µM, 0.0359 µM and 0.0338 µM.
Turning to “GAACAUGAGGAUCACCCAUGUGAGAAUGAUACCAGUAGAAGAAGAUGCCCUUGGCAGCGUGCGUGAGGAUCACCCAUGUAGGAGG [e-theoA-0]”, the “apparent KD of MS2 coat protein” value reads like this: (input ligand: arginine 13.2 mM) 0.03 µM; under setting [1], 0.0341 µM; under setting [3], 0.0259 µM.
As to “GAAGAUCCGUAAGAUACCAGUGCAGAUCGGCACAUGAGGAUCACCCAUGUAAAGCAAGAACACCCUUGGCAGCUUUCGUAACAAC [theeternabot_sameState_MS2_Theo_B_15]”, the “apparent KD of MS2 coat protein” value was 0.0669 µM (input ligand: arginine 13.2 mM), 0.0648 µM under setting [1] and 0.109 µM under setting [3].
For the sequence “GAAGCUCGCGAUGAUACCAGCUCGACUGAUAACAUGAGGAUCACCCAUGUUGUGCGCCCUAGCCCUUGGCAGCAUGACAUAUUCG [theeternabot_sameState_MS2_Theo_B_46]”, the “apparent KD of MS2 coat protein” value (input ligand: arginine 13.2 mM) amounted to 0.0475 µM, the “apparent KD of MS2 coat protein” value under setting [1] stood at 0.126 µM and the “apparent KD of MS2 coat protein” value under setting [3] is 0.0978 µM.
With “GAGCGCGUGGACUGGCGUGCUCCGCUCCGUCGAGGACCGGUACGGCCGCCACUCGACAUGAGGAUCACCCAUGUGCGCGCUCGCU [#1 Exclusion - Tryptophan A Attempt #23 (HarryS)]”, the “apparent KD of MS2 coat protein” value runs as follows: (input ligand: arginine 13.2 mM) 0.00737 µM; (input ligand: none) 0.027 µM; under setting [1], 0.177 µM; under setting [2], 0.0278 µM; under setting [3], 0.0198 µM.
As to “GAGUAGAGGACGGCCGCCACUAAACAUGAGGAUCACCCAUGUCGUGAUCCGUUACCUAGGGUAGAUAGGACCGGGUCAUGUAGUC [Exclusion Tryptophan B GF 17]”, the “apparent KD of MS2 coat protein” value is, setting by setting: (input ligand: arginine 13.2 mM) 0.0477 µM; under setting [1], 0.0658 µM; under setting [2], 0.0847 µM.
Regarding “GAUAUAUACUCGGCCGCCACUGAGAGAGUCAUGUAAACAUGAGGAUCACCCAUGUAAUAUAUAUACAGGACCGGGAGUAUAUUAA [4.C]”, the “apparent KD of MS2 coat protein” value (input ligand: arginine 13.2 mM) came out at 0.016 µM, the “apparent KD of MS2 coat protein” value under setting [1] was found to be 0.0161 µM and the “apparent KD of MS2 coat protein” value under setting [2] is 0.014 µM.
With “GAUCCUCAUACGGAUACCAGCGAAUAACAUGAGGAUCACCCAUGUAAUAAAGAAAAUAAAUGCCCUUGGCAGCCGAAUAGAUAGU [Same State Theophylline B GF 1]”, the “apparent KD of MS2 coat protein” value reads like this: (input ligand: arginine 13.2 mM) 0.0362 µM; under setting [1], 0.137 µM; under setting [3], 0.0911 µM.
Turning to “GAUGAACUAUAUGAUACCAGACAACAUGAGGAUCACCCAUGUGAAAGUCGUCCUCUGCCUGUCCCUUGGCAGCGUAUAGUUUAUC [XTheo B #14]”, the “apparent KD of MS2 coat protein” value runs as follows: (input ligand: arginine 13.2 mM) 0.0611 µM; under setting [1], 0.0761 µM; under setting [3], 0.0284 µM.
With “GAUGAACUAUAUGAUACCAGACAACAUGAGGAUCACCCAUGUGAUUGUCGUCCUCUGCCUGUCCCUUGGCAGCGUAUAGUUUAUC [XTheo B #16]”, the “apparent KD of MS2 coat protein” value turned out to be 0.0384 µM (input ligand: arginine 13.2 mM), 0.0874 µM under setting [1] and 0.0234 µM under setting [3].
Taken in the same sequence, the figures for “GAUGAACUAUUCGAUACCAGACCACAUGAGGAUCACCCAUGUGUGUUUCGUCCUUAGCCGGUCCCUUGGCAGCGAAUAGUUUAUC [#28 Exclusion-TheophyllineB]” were 0.0258 µM, 0.0303 µM and 0.0194 µM.
“GAUUUUACAAAAGUAAAAUCAGUGGGUGAACGAGGACCGGUACGGCCGCCACUCGGACAUGAGGAUCACCCAUGUCCAUGUGAAA [AstrosExyTryA#21]”: the “apparent KD of MS2 coat protein” value came to 0.0171 µM (input ligand: arginine 13.2 mM); 0.0157 µM (input ligand: none); 0.0184 µM under setting [1]; 0.0206 µM under setting [2]; 0.0619 µM under setting [3].
Taken in the same sequence, the figures for “GCACAAGAUGGAAGGAGCGCUGGAAAAGGUCACAUGAGGAUCACCCAUGUUCUCCGAACCGAGCAGGUAGGUCGCUAUCUUGUGC [#09 Same State - Arginine B]” were 0.0375 µM, 0.0419 µM, 0.0599 µM, 0.0507 µM and 0.0417 µM.
With “GCACCAGGUACGGAUACCAGCUGCCAUAGUUACAUGAGGAUCACCCAUGUGAUCUAUUGUAGCCCUUGGCAGCUGUACCUGGUGC [SSThB NP+V+V2 #5 Same Structure]”, the “apparent KD of MS2 coat protein” value was found to be 0.0712 µM (input ligand: arginine 13.2 mM), 0.398 µM under setting [1] and 0.0468 µM under setting [3].
Take “GCACGACAUGAGGAUCACCCAUGUGCAGAUACCAGUAAUGUAUGUUACCCUUGGCAGCUGAGUAGGUCUGGAGGGCUAUAGGUAA [Same State Theophylline A GF12]”: the “apparent KD of MS2 coat protein” value (input ligand: arginine 13.2 mM) stood at 0.0106 µM, the “apparent KD of MS2 coat protein” value under setting [1] came out at 0.018 µM and the “apparent KD of MS2 coat protein” value under setting [3] stood at 0.0137 µM.
“GCACGGGCGAUCGGCACUUUUACUAAUAUACGAGGACCGGUACGGCCGCCACUCGAGCUAAGACAUGAGGAUCACCCAUGUAACG [theeternabot_exclusion_MS2_Trp_A_41]”: the “apparent KD of MS2 coat protein” value by setting is: (input ligand: arginine 13.2 mM) 0.022 µM; under setting [1], 0.03 µM; under setting [2], 0.0304 µM.
With “GCCGCGGCCGCGAUACACAUGGGUGUGUAACGAGGACCGGUACGGCCGCCACUCGAGAUGGCACAUGAGGAUCACCCAUGUGUGC [Exclusion Tryp A GF16]”, the “apparent KD of MS2 coat protein” value is, setting by setting: (input ligand: arginine 13.2 mM) 0.0171 µM; (input ligand: none) 0.0241 µM; under setting [1], 0.0602 µM; under setting [2], 0.0445 µM; under setting [3], 0.0299 µM.
Turning to “GCGAUGGAGCGAAGGAGCGUGCUAGUACAUGAGGAUCACCCAUGUGAGUCGCAGCGCUAAGCACAGGUAGGUCGCGCUCCAUCGC [EAB NP+V+V2 #12]”, the “apparent KD of MS2 coat protein” value reads like this: (input ligand: arginine 13.2 mM) 0.0311 µM; (input ligand: none) 0.0484 µM; under setting [1], 0.0268 µM; under setting [2], 0.0497 µM; under setting [3], 0.0405 µM.
Taken in the same sequence, the figures for “GCGGACAUGAGGAUCACCCAUGUAAAUCCUCGAGGACCGGUACGGCCGCCACUCGAACGAGUGGCGCGCGAGCGCGCGCUCGCGC [aBa]” were 0.0394 µM, 0.0302 µM, 0.0603 µM, 0.0364 µM and 0.0457 µM.
Regarding “GCGUGGUCUGCGGCCGCCACUCAAGGAGCUACAUAGCUCCUAGACAUGAGGAUCACCCAUGUCGCGAGGACCGGGUAGAUUCUCC [Same State Typptophan B GF10]”, the “apparent KD of MS2 coat protein” value is, setting by setting: (input ligand: arginine 13.2 mM) 0.0402 µM; under setting [1], 0.134 µM; under setting [2], 0.12 µM.
As for “GCUAGGUCUACGGCCGCCACUAGACGUGGGUAAGACAUGAGGAUCACCCAUGUACUACAGGCGCAUAGGACCGGGUAGACCUAGC [SSTB NP+V+V2 #11 Same Structure]”, the “apparent KD of MS2 coat protein” value is 0.0496 µM (input ligand: arginine 13.2 mM); 0.0789 µM (input ligand: none); 0.0745 µM under setting [1]; 0.0826 µM under setting [2]; 0.0132 µM under setting [3].
“GCUAUGGCUAGAAGGAGCGUGAAUUUCAGAAAACAUGAGGAUCACCCAUGUAAGGAUAUGACACAGGUAGGUCGCUAGCCAUAGC [SSAB NP+V+V2 #19]”: the “apparent KD of MS2 coat protein” value runs as follows: (input ligand: arginine 13.2 mM) 0.00988 µM; (input ligand: none) 0.0108 µM; under setting [1], 0.0105 µM; under setting [2], 0.0125 µM; under setting [3], 0.0108 µM.
On to “GCUGCCAUACGAAGGAGCGCUGUUGCAAUGAGGCGAACAUGAGGAUCACCCAUGUGGCAAAAGCAGGUAGGUCGCGUAUGGCAGC [EAB #17]”, for which the “apparent KD of MS2 coat protein” value by setting is: (input ligand: arginine 13.2 mM) 0.0204 µM; (input ligand: none) 0.0205 µM; under setting [1], 0.0293 µM; under setting [2], 0.0234 µM; under setting [3], 0.0202 µM.
Taken in the same sequence, the figures for “GCUGCUUAGGGAAGGAGCGCUGCGGAAUUGUGGAGGACAUGAGGAUCACCCAUGUUCCUGCGGCAGGUAGGUCGCUUUGGGCAGC [#17 Exclusion - Arginine B]” were 0.0328 µM, 0.0403 µM, 0.0481 µM, 0.0605 µM and 0.0453 µM.

The record behind these values is the supplement of paper PMC9170038.
